From publication PMC10184318, “The fission yeast cytokinetic ring component Fic1 promotes septum formation” (Biology Open, 2023)

B1: Fic1-MBP [S. pombe] / Cyk3-SH3-GST (aa1-66) [S. pombe] (parent complex)
chain 1: MSKNPLGTLVVRIWKAKNLPNKALVGKQSPYCVCRVGEVVKRTQTDKRSGQEPSWNAVLEFNIPSESYHIMKITVFHEGFRKHPHLIGDTVLSFEKAMKEELQSEWYELKNEFQFAGELSVQFKFIPTDPLYFDRASSKPVLQFPYSSVAALTPVPKKPSKPSKPRKKVPVSHPLPPTPPSREEHVSVPRESSLFTYEDDPLPSFPSPYMVDDYYTQDVFVSDNVNDYSYGVQNPTNPRLSVEDYDANHSSLPPVPPPHLILPTASSSQIFH
chain 2: MSIPKQLPCMVRALYAWPGEREGDLKFTEGDLIECLSIGDGKWWIGRHINTNTQGIFPSNFVHCLD

Variants of: B1
Assay: in vitro binding assay (GST pull-down, Coomassie Blue-stained SDS-PAGE, band quantification); parent: 1; read off a plot
chain 1 P174A, chain 1 P177A was tested, and the response was roughly 0.35 A.U. Work on chain 1 P176A, chain 1 P179A yielded a response of roughly 0.19 A.U.
